# Patent publication US20140017242A1, “ANTI-BRADYKININ B2 RECEPTOR (BKB2R) MONOCLONAL ANTIBODY” (Diamedica, Inc., priority 2010, published 2014)
# T1: BKB2 receptor (Homo sapiens, UniProt P30411)
# T1 sequence (P30411 1-391): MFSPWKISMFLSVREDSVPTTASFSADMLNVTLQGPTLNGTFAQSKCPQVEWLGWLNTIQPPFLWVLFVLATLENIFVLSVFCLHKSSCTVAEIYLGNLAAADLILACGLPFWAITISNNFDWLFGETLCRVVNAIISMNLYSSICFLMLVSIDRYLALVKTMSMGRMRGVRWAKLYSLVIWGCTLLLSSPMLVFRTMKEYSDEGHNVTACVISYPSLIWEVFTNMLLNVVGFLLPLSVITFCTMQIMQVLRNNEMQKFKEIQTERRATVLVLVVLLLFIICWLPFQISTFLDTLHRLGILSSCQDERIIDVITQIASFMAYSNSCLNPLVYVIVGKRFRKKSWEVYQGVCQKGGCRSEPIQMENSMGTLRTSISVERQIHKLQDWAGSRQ
# B1: 5F12G1: murine monoclonal anti-BKB2R antibody (IgG2b,κ), VH comprising SEQ ID NO:1, VL comprising SEQ ID NO:2 (antibody, listed as Mus musculus, V domains shown)
# VH: EVKLEESGGGLVQPGGSMKLSCVVSGFTFSDYWMSWVRHSPEMGLEWVAEIRLKSDNYATHYAESVKGRFTISRDDSKSRLYLQINSLRGEDTGIYYCTRDYYAMEYWGQGTSVTVSS
# VL: DVVMTQTPLSLPVSLGDQASISCRSSQTIVHSNGKTYLEWYLQKPGQSPKLLIYKVSNRFSGVPDRFSGSGSGTEFTLKISRVETEDLGVYYCFQASHVPYTFGGGTKLEIK
# Tests used:
# [1] = test system: NUGC-4; experiment: MTT Cell Proliferation Assay, NUGC-4; assay type: cell-based, human; conditions: 120 hours of exposure
# From the text: (§1) This Example describes characterization of the cytotoxic activity of herein described anti-BKB2R monoclonal antibodies against a panel of cancer cell lines. BxPC-3 is a human adenocarcinoma cell line originally isolated from the pancreas (pancreatic cancer) (ATCC # CRL-1687; Tan et al., Cancer Invest. 4: 15-23, 1986. PubMed: 3754176). MV-4-11 is a human biphenotypic B myelomonocytic leukemia (mixed-lineage leukemia, MLL-AF4) cell line originally isolated from the peripheral blood (ATCC # CRL-959; Lange et al., Blood 70: 192-199, 1987. PubMed: 3496132). Hep G2 is a human hepatocellular carcinoma cell line isolated from the liver (liver cancer) (ATCC # HB-8065; Aden et al., Nature 282: 615-616, 1979. PubMed: 233137). RS4;11 is a human acute lymphoblastic leukemia (mixed-lineage leukemia, MLL-AF4) cell line isolated from the bone marrow (ATTC # CRL-1873) Stong et al., Blood 65: 21-31, 1985. PubMed: 3917311). HT-29 is a human colorectal adenocarcinoma (ATTC # HTB-38) cell line isolated from the colon (colon cancer). Fogh et al., J. Natl. Cancer Inst. 58: 209-214, 1977. PubMed: 833871). NUGC-4 is a human stomach carcinoma isolated from the stomach paragastiric lymph node (JCRB # JCRB0834; Akiyama et al., Jpn. J. Surg., 18: 438-446, 1988). […]
# (§2) The anti-proliferative activity of test compounds against the indicated cell lines was evaluated in vitro using the ATCC's MTT Cell Proliferation Assay (Catalog No. 30-1010K). After the 120 hour incubation with drug (e.g., anti-BKB2R mAb or cisplatin), cell proliferation was measured by addition of MTT reagent to each well and incubation for an additional 4 hrs. […] Optical absorbance (570 nm) of the test wells was measured and then quantitated relative to control wells that received no drug. Results were expressed as percent inhibition versus compound concentration and graphed, as shown in FIGS. 19-25, for cell lines BxPC-3, MV-4;11, HepG2, RS-4;11, HT-29, NUGC-4, and PC-3, respectively.
# [2] = test system: RS-4;11; experiment: MTT Cell Proliferation Assay, RS-4;11; assay type: cell-based, human; conditions: 120 hours of exposure
# From the text: as §1, §2
# [3] = test system: diet induced obese (DIO) mice; experiment: Oral glucose tolerance test in DIO mice, single dose of 5F12G1; assay type: in vivo, mouse; conditions: single s.c. administration 1.0, 0.2 and 0.04 mg/kg
# Protocol: This Example describes evaluation of oral glucose tolerance in diet induced obese (DIO) mice treated with the anti-BKB2R monoclonal antibody 5F12G1 (VH comprising SEQ ID NO:1, VL comprising SEQ ID NO:2). Male C57BL/6J mice (Jackson Laboratory, Bar Harbor, Me.) were maintained on a 60 kcal % fat diet with Research Diet and Arrowhead drinking water ad libitum and permitted to acclimatize for a period of eight weeks. Ten animals per group were treated according to the following treatment groups: 1, sterile PBS (vehicle control); 2, 1.0 mg/kg murine monoclonal antibody (mAb) 5F12G1; 3, 0.2 mg/kg mAb 5F12G1; 4, 0.04 mg/kg mAb 5F12G1.
# Oral Glucose Tolerance Test. The Oral Glucose Tolerance Test (OGTT) was performed on overnight fasted (16 hours) mice. […] Blood glucose levels were measured before administration of vehicle or 5F12G1 (−30 minutes) and just before glucose loading (0 minute) and at ensuing timepoints of 15, 30, 60 90 and 120 minutes using an Accu-Chek™ glucose meter (Roche Diagnostics, Indianapolis, Ind.) according to the manufacturer's instructions.
# At multiple time points (0, 15, 30, 60, 90 and 120 minutes) blood samples of approximately 50 μl each were collected and processed to isolate the plasma. The plasma samples were analyzed for insulin by an ELISA method using an ultra sensitive mouse insulin ELISA kit (Crystal Chem, Inc., Downers Grove, Ill.). […]
# [4] = test system: BxPC-3; experiment: MTT Cell Proliferation Assay, BxPC-3; assay type: cell-based, human; conditions: 120 hours of exposure
# From the text: as §1, §2
# [5] = biological target: T1, BKB2 receptor; experiment: Intracellular calcium release in CHO-K1/B2/Gα15 cells (FLIPR Calcium 4); assay type: cell-based; design: expressed in transfected cells; conditions: 0.5 mg/ml; normalized to the positive control; mean+/−SD, n=2
# Protocol: A stable CHO cell line expressing the human BKB2 receptor (CHO-K1/B2/Gα15) was used for the screening. The antibody was diluted to five different concentrations, from 0.5 mg/ml, via three-fold dilution increments, and screened on duplicate cell samples.
# Expression and functional activity of the human BKB2 receptor in the CHO-K1/B2/Gα15 cell line were validated by exposure to the positive control, bradykinin.
# To perform the assay, CHO-K1/B2/Gα15 cells were seeded in wells of a 384-well black-wall, clear-bottom plate at a density of 20,000 cells per well in 20 μL of growth medium 20 hours prior to the day of experiment, and maintained at 37° C./5% CO2. 20 μL of dye-loading solution (FLIPR™ Calcium 4 assay kit, Molecular Devices, Sunnyvale, Calif.) was added into each well and the plate was placed into a 37° C. incubator for 60 minutes, followed by 15 minutes at room temperature. The total reading time was 120 sec. After a 20-second reading to establish the baseline, the antibody or agonist were added to selected wells and the fluorescence signal was captured for another 100 seconds (21 s to 120 s). Readings from wells containing cells stimulated with assay buffer (0.03% Na3N PBS) containing 1% DMSO were chosen as the background values for screening; readings from wells containing cells stimulated with the agonist bradykinin (at 10 uM) were chosen as the positive control.
molecule,measurement,setting,value
B1,EC 50 Values (ng/ml) NUGC-4,[1],47000 ng/mL
same,EC 50 Values (ng/ml) RS-4;11,[2],15000 ng/mL
same,insulin activity in OGTT,[3],dose dependently increased insulin activity
same,"area under curve (AUC) of blood glucose concentration after oral loading of glucose, compared to vehicle control",[3]; 30 min before glucose 2 g/kg,decreased
same,EC 50 Values (ng/ml) BxPC-3,[4],23000 ng/mL
same,percentage of activation,[5],72.7+/−3.5%
